US20070244048A1 (published 2007)
Values joined by “and” are separate entries in the source; they are usually repeats but may differ in a detail not shown here. Equal values may be shown once. Non-standard residues stand in square brackets, D forms with d. No end group written: not given here. *: point of attachment. (PEG)2 40 kDa = branched PEG of 40 kDa linked via the Cys side-chain thiol (code C2 = Cys(PEG)2 40 kDa); Cholesteroyl = cholesterol linked to a cysteine residue via the side-chain thiol; Succinimide(1-Et,3-yl) = CCN1C(=O)CC(*)C1=O

Tests used:
Assay in all cases: cell-based or functional assay
mouse NMUR2 = mouse NMUR2 (mouse, UniProt Q8BZ39 1-395)
Sequence of mouse NMUR2 (Q8BZ39 whole entry): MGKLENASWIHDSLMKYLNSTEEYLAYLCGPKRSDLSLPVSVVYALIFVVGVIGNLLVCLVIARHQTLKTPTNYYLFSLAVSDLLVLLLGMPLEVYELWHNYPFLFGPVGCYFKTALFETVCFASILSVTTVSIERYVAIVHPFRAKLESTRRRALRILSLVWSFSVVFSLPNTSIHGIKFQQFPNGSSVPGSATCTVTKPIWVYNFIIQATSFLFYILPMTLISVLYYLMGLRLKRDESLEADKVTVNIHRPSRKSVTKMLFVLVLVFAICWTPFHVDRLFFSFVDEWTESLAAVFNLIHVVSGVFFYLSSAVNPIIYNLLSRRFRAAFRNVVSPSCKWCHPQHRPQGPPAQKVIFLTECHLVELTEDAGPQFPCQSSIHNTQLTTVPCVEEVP

human NMUR1 = target: T1, human NMUR1 (human, UniProt Q9HB89 1-426)
T1 sequence (looked up): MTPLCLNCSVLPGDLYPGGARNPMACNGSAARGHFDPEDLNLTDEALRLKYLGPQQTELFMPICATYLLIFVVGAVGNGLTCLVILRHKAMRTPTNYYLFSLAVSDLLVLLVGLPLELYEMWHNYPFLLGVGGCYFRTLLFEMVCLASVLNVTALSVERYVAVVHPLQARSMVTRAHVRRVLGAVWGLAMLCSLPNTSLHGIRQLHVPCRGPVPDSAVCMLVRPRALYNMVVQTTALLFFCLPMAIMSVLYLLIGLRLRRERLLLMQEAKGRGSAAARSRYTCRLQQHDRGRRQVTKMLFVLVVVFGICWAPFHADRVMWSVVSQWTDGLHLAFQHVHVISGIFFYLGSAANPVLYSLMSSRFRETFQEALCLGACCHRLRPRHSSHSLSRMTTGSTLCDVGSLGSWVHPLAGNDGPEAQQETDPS

human NMUR2 = human NMUR2 (human, UniProt Q9GZQ4 1-415)
Sequence of human NMUR2 (Q9GZQ4 whole entry): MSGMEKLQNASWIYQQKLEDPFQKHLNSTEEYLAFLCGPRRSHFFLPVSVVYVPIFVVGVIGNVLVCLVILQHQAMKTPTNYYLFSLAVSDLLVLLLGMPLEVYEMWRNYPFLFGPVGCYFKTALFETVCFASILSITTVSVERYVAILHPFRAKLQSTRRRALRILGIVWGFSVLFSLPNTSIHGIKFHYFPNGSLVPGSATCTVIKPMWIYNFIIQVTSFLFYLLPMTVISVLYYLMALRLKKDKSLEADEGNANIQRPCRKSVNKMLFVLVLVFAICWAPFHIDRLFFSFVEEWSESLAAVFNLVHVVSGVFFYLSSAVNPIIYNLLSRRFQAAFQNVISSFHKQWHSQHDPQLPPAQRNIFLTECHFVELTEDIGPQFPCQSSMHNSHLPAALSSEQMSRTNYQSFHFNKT

rat NMUR2 = rat NMUR2 (rat, UniProt Q9ESQ4 1-395)
Sequence of rat NMUR2 (Q9ESQ4 whole entry): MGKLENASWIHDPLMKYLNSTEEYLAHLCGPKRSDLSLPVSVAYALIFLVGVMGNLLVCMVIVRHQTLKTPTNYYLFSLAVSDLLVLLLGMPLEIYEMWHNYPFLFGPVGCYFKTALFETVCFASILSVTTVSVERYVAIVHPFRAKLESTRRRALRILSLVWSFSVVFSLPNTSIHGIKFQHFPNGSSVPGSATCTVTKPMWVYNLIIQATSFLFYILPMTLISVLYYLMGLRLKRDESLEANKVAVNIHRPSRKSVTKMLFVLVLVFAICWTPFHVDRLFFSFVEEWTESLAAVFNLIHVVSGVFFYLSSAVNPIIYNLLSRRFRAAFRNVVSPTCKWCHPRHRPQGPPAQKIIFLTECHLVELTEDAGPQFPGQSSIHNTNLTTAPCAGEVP

rat NMUR1-ATG = target: T2, rat NMUR1-ATG (rat, UniProt Q9JJI5 1-425)
T2 sequence (looked up): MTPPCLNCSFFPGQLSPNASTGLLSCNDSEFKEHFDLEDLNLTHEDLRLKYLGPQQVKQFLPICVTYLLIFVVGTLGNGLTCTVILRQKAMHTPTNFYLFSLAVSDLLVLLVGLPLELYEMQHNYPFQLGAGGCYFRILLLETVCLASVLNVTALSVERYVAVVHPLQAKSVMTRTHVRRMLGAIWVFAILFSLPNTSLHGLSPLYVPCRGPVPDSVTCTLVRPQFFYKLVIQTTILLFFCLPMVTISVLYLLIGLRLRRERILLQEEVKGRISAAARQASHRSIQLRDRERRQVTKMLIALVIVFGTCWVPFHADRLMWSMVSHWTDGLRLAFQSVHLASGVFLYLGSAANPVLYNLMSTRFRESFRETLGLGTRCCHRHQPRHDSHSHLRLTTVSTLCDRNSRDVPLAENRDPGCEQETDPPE

mouse NMUR1-CTG = target: T3, mouse NMUR1-CTG (mouse, UniProt O55040 1-428)
T3 sequence (looked up): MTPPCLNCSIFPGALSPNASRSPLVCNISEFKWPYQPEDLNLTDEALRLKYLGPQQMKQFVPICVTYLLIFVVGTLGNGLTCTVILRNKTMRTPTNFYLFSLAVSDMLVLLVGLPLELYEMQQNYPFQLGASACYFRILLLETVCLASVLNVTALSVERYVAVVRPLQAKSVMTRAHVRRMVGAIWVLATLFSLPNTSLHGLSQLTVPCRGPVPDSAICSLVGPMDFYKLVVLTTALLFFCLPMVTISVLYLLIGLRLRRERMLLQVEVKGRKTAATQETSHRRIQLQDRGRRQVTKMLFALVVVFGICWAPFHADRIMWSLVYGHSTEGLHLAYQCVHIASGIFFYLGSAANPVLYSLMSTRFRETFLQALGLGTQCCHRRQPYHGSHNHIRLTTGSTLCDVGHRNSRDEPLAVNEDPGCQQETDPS

mouse NMUR1-ATG = target: T4, mouse NMUR1-ATG (mouse, UniProt O55040 1-428)
T4 sequence (looked up): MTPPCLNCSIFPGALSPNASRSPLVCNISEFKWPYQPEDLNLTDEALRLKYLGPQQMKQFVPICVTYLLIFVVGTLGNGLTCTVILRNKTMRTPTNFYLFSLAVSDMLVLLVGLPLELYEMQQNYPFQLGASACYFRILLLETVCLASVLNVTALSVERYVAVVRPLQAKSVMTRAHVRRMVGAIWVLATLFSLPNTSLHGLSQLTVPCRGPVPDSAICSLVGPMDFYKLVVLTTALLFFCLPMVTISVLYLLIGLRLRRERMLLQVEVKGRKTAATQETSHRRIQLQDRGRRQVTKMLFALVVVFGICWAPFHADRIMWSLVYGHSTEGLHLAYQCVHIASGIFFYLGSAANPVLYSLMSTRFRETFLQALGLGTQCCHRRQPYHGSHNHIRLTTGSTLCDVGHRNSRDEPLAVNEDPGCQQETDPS

rat NMUR1-TTG = target: T5, rat NMUR1-TTG (rat, UniProt Q9JJI5 1-425)
T5 sequence (looked up): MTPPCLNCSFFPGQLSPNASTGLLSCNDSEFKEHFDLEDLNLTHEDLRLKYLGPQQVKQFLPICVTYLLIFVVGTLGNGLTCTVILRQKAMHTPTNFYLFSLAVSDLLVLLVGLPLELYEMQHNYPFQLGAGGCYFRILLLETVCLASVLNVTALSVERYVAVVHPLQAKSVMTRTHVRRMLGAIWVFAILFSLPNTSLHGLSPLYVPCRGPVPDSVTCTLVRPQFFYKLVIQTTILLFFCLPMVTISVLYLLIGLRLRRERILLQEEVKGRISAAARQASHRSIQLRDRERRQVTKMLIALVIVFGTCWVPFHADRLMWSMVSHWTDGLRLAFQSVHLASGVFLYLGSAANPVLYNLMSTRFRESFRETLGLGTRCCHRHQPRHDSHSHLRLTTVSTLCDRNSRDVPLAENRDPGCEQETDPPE

| Binder | % Activity (FLIPR) (mouse NMUR2) [%] | EC50 (FLIPR) (mouse NMUR2) [nM] | % Activity (FLIPR) (human NMUR1) [%] | EC50 (FLIPR) (human NMUR1) [nM] | % Activity (FLIPR) (human NMUR2) [%] | EC50 (FLIPR) (human NMUR2) [nM] | % Activity (FLIPR) (rat NMUR2) [%] | EC50 (FLIPR) (rat NMUR2) [nM] | % Activity (FLIPR) (rat NMUR1-ATG) [%] | EC50 (FLIPR) (rat NMUR1-ATG) | % Activity (FLIPR) (mouse NMUR1-CTG) [%] | EC50 (FLIPR) (mouse NMUR1-CTG) [nM] | % Activity (FLIPR) (mouse NMUR1-ATG) [%] | EC50 (FLIPR) (mouse NMUR1-ATG) [nM] | % Activity (FLIPR) (rat NMUR1-TTG) [%] | EC50 (FLIPR) (rat NMUR1-TTG) [nM] |
| --- | --- | --- | --- | --- | --- | --- | --- | --- | --- | --- | --- | --- | --- | --- | --- | --- |
| FRVDEEFQSPFASQSRGYFLFRPRN-NH2 (not fully specified (N-terminus)) [NMU1] | 95.7 | 31 | 83.7 | 81.4 | 85 | 64.8 | 87.1 | 71.7 | 59.3 | 718 nM | – | – | – | – | – | – |
| Ac-C(Cholesteroyl)FRVDEEFQSPFASQSRGYFLFRPRN-NH2 [NMU10] | 70.5 | 1000 | 26.6 | 1000 | 31.3 | 1000 | 97.4 | 41.5 | 80.1 | 201 nM | 69.2 | 1000 | 76.8 | 173 | – | – |
| Ac-C(Succinimide(1-Et,3-yl))GYFLFRPRN-NH2 (SMILES CCN1C(=O)CC(SC[C@H](NC(C)=O)C(=O)NCC(=O)N[C@@H](Cc2ccc(O)cc2)C(=O)N[C@@H](Cc2ccccc2)C(=O)N[C@@H](CC(C)C)C(=O)N[C@@H](Cc2ccccc2)C(=O)N[C@@H](CCCNC(=N)N)C(=O)N2CCC[C@H]2C(=O)N[C@@H](CCCNC(=N)N)C(=O)N[C@@H](CC(N)=O)C(N)=O)C1=O) [NMU6] | 100 | 0.7 | 96.7 | 3.5 | 100 | 1.5 | 100 | 1.5 | 100 | 1 nM | 100 | 2 | 100 | 1 | – | – |

Other lines, results leading:

| % Activity (FLIPR) (mouse NMUR2) [%] | EC50 (FLIPR) (mouse NMUR2) [nM] | % Activity (FLIPR) (human NMUR1) [%] | EC50 (FLIPR) (human NMUR1) [nM] | % Activity (FLIPR) (human NMUR2) [%] | EC50 (FLIPR) (human NMUR2) [nM] | % Activity (FLIPR) (rat NMUR2) [%] | EC50 (FLIPR) (rat NMUR2) [nM] | % Activity (FLIPR) (rat NMUR1-ATG) [%] | EC50 (FLIPR) (rat NMUR1-ATG) | % Activity (FLIPR) (mouse NMUR1-CTG) [%] | EC50 (FLIPR) (mouse NMUR1-CTG) [nM] | % Activity (FLIPR) (mouse NMUR1-ATG) [%] | EC50 (FLIPR) (mouse NMUR1-ATG) [nM] | % Activity (FLIPR) (rat NMUR1-TTG) [%] | EC50 (FLIPR) (rat NMUR1-TTG) [nM] | Binder |
| --- | --- | --- | --- | --- | --- | --- | --- | --- | --- | --- | --- | --- | --- | --- | --- | --- |
| 0 | > 1000 | 95.7 | 104 | 0 | > 1000 | – | – | – | 240 nM and 133 nM | 24.8 | > 1000 | 60.8 | 584 | 36.7 | > 1000 | Ac-C((PEG)2 40 kDa)FRVDEEFQSPFASQSRGYF[dA]WRPRN-NH2 [NMU14] |
| 94.1 | 19.1 | 92.9 | 58.6 | 89 | 119 | 43.4 | 1000 | 52.7 | 1000 nM | 68.5 | 407 | 98.4 | 72 | – | – | Ac-C((PEG)2 40 kDa)FRVDEEFQSPFASQSRGYFLFRPRN-NH2 [NMU12] |
| 100 | 1 | 98.1 | 6.1 | 98.1 | 2.5 | 100 | 2.3 | 100 | 3.6 nM | 100 | 11.9 | 100 | 3.3 | – | – | Ac-FRVDEEFQSPFASQSRPYFLFRPRN-NH2 [NMU5] |
